Measurements published in the supplement of paper PMC9112550, “Optimization of the antimicrobial peptide Bac7 by deep mutational scanning” (BMC Biology, 2022).

System: Escherichia coli TOP10
Experiment: shrunken log2 fold change of peptide-encoding DNA abundance (4.5 h post-induction vs induction); higher = less antimicrobial activity (less host growth inhibition)
Conditions: time post-induction: 4.5 h; library: site-saturation at positions 5, 18, 19, 20
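Also: peptides expressed intracellularly from a pBAD plasmid library in pooled LB shake-flask culture, induced with 0.3% L-arabinose, DNA abundance read by NGS, three biological replicates, DESeq2 with apeglm shrinkage.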

| Sequence | shrunken log2 fold change |
| --- | --- |
| RRIRFRPPRLPRPRPRPYALPRP | -0.0591 |
| RRIRDRPPRLPRPRPRPRERPRP | 0.352 |
| RRIRFRPPRLPRPRPRPCTNPRP | -0.598 |
| RRIRNRPPRLPRPRPRPTKRPRP | -0.301 |
| RRIRCRPPRLPRPRPRPMWRPRP | 0.276 |
| RRIRFRPPRLPRPRPRPSGYPRP | 0.00547 |
| RRIRIRPPRLPRPRPRPVTRPRP | 0.0796 |
| RRIRPRPPRLPRPRPRPIMAPRP | -0.0956 |
| RRIRDRPPRLPRPRPRPPKKPRP | 0.0806 |
| RRIRPRPPRLPRPRPRPKEFPRP | -0.0187 |
| RRIRMRPPRLPRPRPRPHAVPRP | 0.353 |
| RRIRNRPPRLPRPRPRPEYYPRP | -0.0216 |
| RRIRARPPRLPRPRPRPFPGPRP | -0.116 |
| RRIRCRPPRLPRPRPRPLAWPRP | -0.0538 |
| RRIRLRPPRLPRPRPRPNANPRP | -0.101 |
| RRIRGRPPRLPRPRPRPTLQPRP | 0.779 |
| RRIRSRPPRLPRPRPRPKCVPRP | -0.138 |
| RRIRWRPPRLPRPRPRPRTYPRP | -0.331 |
| RRIRERPPRLPRPRPRPEHFPRP | -0.00973 |
| RRIRFRPPRLPRPRPRPGGAPRP | 0.263 |

| Sequence | shrunken log2 fold change |
| --- | --- |
| RRIRVRPPRLPRPRPRPGFSPRP | -0.101 |
| RRIRARPPRLPRPRPRPVAYPRP | 0.0127 |
| RRIRARPPRLPRPRPRPHLYPRP | -0.218 |
| RRIRTRPPRLPRPRPRPNATPRP | 0.469 |
| RRIRFRPPRLPRPRPRPTRKPRP | 0.516 |
| RRIRMRPPRLPRPRPRPSVVPRP | 0.124 |
| RRIRHRPPRLPRPRPRPCTSPRP | -0.0185 |
| RRIRWRPPRLPRPRPRPLWQPRP | 0.156 |
| RRIRIRPPRLPRPRPRPQVHPRP | -0.707 |
| RRIRIRPPRLPRPRPRPDIQPRP | -0.37 |
| RRIRLRPPRLPRPRPRPYEYPRP | -0.132 |
| RRIRTRPPRLPRPRPRPEDVPRP | -0.0588 |
| RRIRARPPRLPRPRPRPHEVPRP | 0.101 |
| RRIRGRPPRLPRPRPRPQYCPRP | 0.192 |
| RRIRPRPPRLPRPRPRPSSCPRP | 0.0133 |
| RRIRRRPPRLPRPRPRPHLVPRP | 0.127 |
| RRIRPRPPRLPRPRPRPYPQPRP | -0.252 |
| RRIRPRPPRLPRPRPRPNAKPRP | -0.0129 |
| RRIRFRPPRLPRPRPRPKATPRP | -0.061 |
| RRIRNRPPRLPRPRPRPNDNPRP | -0.734 |

| Sequence | shrunken log2 fold change |
| --- | --- |
| RRIRMRPPRLPRPRPRPRAMPRP | 1.42 |
| RRIRIRPPRLPRPRPRPTLWPRP | 0.22 |
| RRIRKRPPRLPRPRPRPCGCPRP | 0.249 |
| RRIRQRPPRLPRPRPRPESYPRP | -0.0748 |
| RRIRQRPPRLPRPRPRPFMCPRP | -0.371 |
| RRIRHRPPRLPRPRPRPGTDPRP | -0.0998 |
| RRIRHRPPRLPRPRPRPGGLPRP | 0.117 |
| RRIRWRPPRLPRPRPRPHCHPRP | -0.254 |
| RRIRWRPPRLPRPRPRPWTWPRP | 0.0111 |
| RRIRIRPPRLPRPRPRPPKPPRP | 0.0539 |
| RRIRYRPPRLPRPRPRPICTPRP | -0.376 |
| RRIRIRPPRLPRPRPRPPLRPRP | 0.0855 |
| RRIRERPPRLPRPRPRPKLVPRP | 0.0398 |
| RRIRIRPPRLPRPRPRPGCEPRP | -0.0688 |
| RRIRTRPPRLPRPRPRPCYTPRP | -0.0244 |
| RRIRSRPPRLPRPRPRPTFCPRP | 0.155 |
| RRIRERPPRLPRPRPRPKNQPRP | -0.281 |
| RRIRMRPPRLPRPRPRPWMQPRP | 2.38 |
| RRIRDRPPRLPRPRPRPHYWPRP | -0.282 |
| RRIRKRPPRLPRPRPRPSATPRP | 0.368 |
